Data from publication PMC5726920 (Nature chemical biology, 2017).

B1: creatine kinase M from mouse heart (enzyme)
chain: not shown
B2: mitochondrial malate dehydrogenase (enzyme)
chain: AKVAVLGASGGIGQPLSLLLKNSPLVSRLTLYDIAHTPGVAADLSHIETKAAVKGYLGPEQLPDCLKGCDVVVIPAGVPRKPGMTRDDLFNTNATIVATLTAACAQHCPEAMICVIANPVNSTIPITAEVFKKHGVYNPNKIFGVTTLDIVRANTFVAELKGLDPARVNVPVIGGHAGKTIIPLISQCTPKVDFPQDQLTALTGRIQEAGTEVVKAKAGAGSATLSMAYAGARFVFSLVDAMNGKEGVVECSFVKSQETECTYFSTPLLLGKKGIEKNLGIGKVSSFEEKMISDAIPELKASIKKGEDFVKTLK
B3: murine cytosolic aspartate aminotransferase (enzyme)
chain: MAPPSVFAQVPQAPPVLVFKLTADFRDDPDPRKVNLGVGAYRTDESQPWVLPVVRKVEQKIANDNSLNHEYLPILGLAEFRSCASRLVLGDNSLAIRENRVGGVQSLGGTGALRIGADFLGRWYNGTDNKNTPIYVSSPTWENHNAVFSAAGFKDIRPYCYWDAEKRGLDLQGFLNDLENAPEFSIFVLHACAHNPTGTDPTPEQWKQIAAVMQRRFLFPFFDSAYQGFASGDLEKDAWAIRYFVSEGFELFCAQSFSKNFGLYNERVGNLTVVGKESDSVLRVLSQMEKIVRITWSNPPAQGARIVAATLSDPELFKEWKGNVKTMADRILTMRSELRARLEALKTPGTWSHITEQIGMFSFTGLNPKQVEYLVNEKHIYLLPSGRINMCGLTTKNLDYVATSIHEAVTKIQ
B4: 3-hydroxyisobutyrate dehydrogenase (enzyme)
chain: ASKTPVGFIGLGNMGNPMAKNLMKHGYPLILYDVFPDVCKEFKEAGEQVASSPAEVAEKADRIITMLPSSMNAVEVYSGANGILKKVKKGSLLIDSSTIDPSVSKELAKEVEKMGAVFMDAPVSGGVGAARSGNLTFMVGGVEDEFAAAQELLECMGSNVVYCGAVGTGQSAKICNNMLLAISMIGTAEAMNLGIRSGLDPKLLAKILNMSSGRCWSSDTYNPVPGVMHGVPSSNNYQGGFGTTLMAKDLGLAQDSATSTKTPILLGSLAHQIYRMMCSKGYSKKDFSSVFQYLREEEPF
B5: NAD(P)H-hydrate epimerase (enzyme)
chain: ASTVVKYLSQEEAQAVDQELFNEYQFSVDQLMELAGLSCATAIAKAYPPTSMSRSPPTVLVICGPGNNGGDGLVCARHLKLFGYEPTIYYPKRPNKPLFTALVTQCQKMDIPFLGEMPAEPMTIDELYELVVDAIFGFSFKGDVREPFHSILSVLKGLTVPIASIDIPSGWDVEKGNAGGIQPDLLISLTAPKKSATQFTGRYHYLGGRFVPPALEKKYQLNLPPYPDTECVYRLQ
B6: human mitochondrial superoxide dismutase (enzyme)
chain: KHSLPDLPYDYGALEPHINAQIMQLHHSKHHAAYVNNLNVTEEKYQEALAKGDVTAQIALQPALKFNGGGHINHSIFWTNLSPNGGGEPKGELLEAIKRDFGSFDKFKEKLTAASVGVQGSGWGWLGFNKERGHLQIAACPNQDPLQGTTGLIPLLGIDVWEHAYYLQYKNVRPDYLKAIWNVINWENVTERYMACKK

Target: the molecule itself
Test: native MS
B1 was tested, and the “stoichiometry N” value was 2. B2 was tested, and the “stoichiometry N” value was 2. For B3, the “stoichiometry N” value was 2. For B4, the “stoichiometry N” value was 4. B5 was tested, and the “stoichiometry N” value was 2. With B6 the “stoichiometry N” value was 4.
